From patent US20210155689A1 (SHANGHAI PHARMAEXPLORER, published 2021) come the findings set out here.

Primed or numbered codes have the meaning given here. No end group written: not given here. Biotin′ = biotin label at the C-terminus

Assay [1] concerns the target LAG-3-hFc protein (human LAG-3 extracellular region with hFc tag) (human) (UniProt P18627). The assay is described as follows: FACS, inhibition of LAG-3-hFc binding to MHC II on Raji cells, antibody 22.222 nM. A general note: In flow cytometry, cells or beads pass a laser one at a time.
The target of assay [2] is human LAG-3 on cells (HEK293-hLAG-3 stable cell line) (human) (UniProt P18627). Nature of the assay: FACS, HEK293-hLAG-3, antibody 0 nM.
The target in assay [3] is LAG-3-hFc protein (human LAG-3 extracellular region with hFc tag) (human) (UniProt P18627). The assay is described as follows: ELISA, inhibition of LSECtin-His binding to coated LAG-3-hFc, antibody 8.000 nM, replicate 2.
The target in assay [4] is human LAG-3 on cells (HEK293-hLAG-3 stable cell line) (human) (UniProt P18627). The assay is described as follows: FACS, HEK293-hLAG-3, antibody 0.32 nM.
Assay [5] deals with LAG-3-hFc protein (human LAG-3 extracellular region with hFc tag) (human) (UniProt P18627). The assay is described as follows: ELISA, inhibition of LSECtin-His binding to coated LAG-3-hFc, antibody 200.000 nM, replicate 1. In general terms: In an ELISA, binding on a coated surface is turned into a signal by an enzyme label.
Assay [6] addresses human LAG-3 on cells (HEK293-hLAG-3 stable cell line) (human) (UniProt P18627). The assay is described as follows: FACS, HEK293-hLAG-3, antibody 200.000 nM.
Assay [7] has as its target LAG-3-hFc protein (human LAG-3 extracellular region with hFc tag) (human) (UniProt P18627). The assay is described as follows: FACS, inhibition of LAG-3-hFc binding to MHC II on Raji cells, antibody 0.000 nM.
Assay [8] shares this target. Nature of the assay: ELISA, inhibition of LSECtin-His binding to coated LAG-3-hFc, antibody 8.000 nM, replicate 1.
Assay [9] has as its target T1, human LAG-3 on cells (HEK293-hLAG-3 stable cell line) (human, UniProt P18627 23-525).
T1 sequence: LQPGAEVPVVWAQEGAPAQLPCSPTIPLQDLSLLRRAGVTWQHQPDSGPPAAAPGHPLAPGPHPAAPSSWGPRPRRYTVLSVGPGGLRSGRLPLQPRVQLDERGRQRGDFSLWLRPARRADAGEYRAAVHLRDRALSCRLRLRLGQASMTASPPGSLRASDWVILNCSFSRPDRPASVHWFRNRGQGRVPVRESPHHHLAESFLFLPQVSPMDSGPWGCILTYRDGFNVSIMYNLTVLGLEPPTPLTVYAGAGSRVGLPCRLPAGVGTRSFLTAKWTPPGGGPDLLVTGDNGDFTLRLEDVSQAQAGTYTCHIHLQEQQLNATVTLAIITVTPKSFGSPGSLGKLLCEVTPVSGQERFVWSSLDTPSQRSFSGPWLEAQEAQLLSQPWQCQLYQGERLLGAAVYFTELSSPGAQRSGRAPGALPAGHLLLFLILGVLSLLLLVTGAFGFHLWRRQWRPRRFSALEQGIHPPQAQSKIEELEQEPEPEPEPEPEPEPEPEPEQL
The assay is described as follows: FACS, HEK293-hLAG-3, antibody 0.32 nM. The source says: (§1) A. The binding of antibodies to LAG-3 expressing cells was detected by Flow cytometry (FACS), wherein the method was according to that of Example 5.

The target of assay [10] is T1, human LAG-3 on cells (HEK293-hLAG-3 …). Nature of the assay: FACS, HEK293-hLAG-3, antibody 0 nM.
Assay [11] shares this target. The assay is described as follows: FACS, HEK293-hLAG-3, antibody 0.013 nM.
Text: as §1

A further assay concerns the target T2, PHPAAPSSWGPRK-Biotin (human).
T2 construct: Overlapping peptide of the outer loop of human LAG-3; also called LAG-3 Extra cyclic peptide
T2 peptide: PHPAAPSSWGPRK-{Biotin′}
The assay is described as follows: peptide scanning ELISA, biotin peptide on streptavidin. Here is the method: (§2) Fifteen overlapping peptides including the full length of the outer loop sequence were prepared and biotin was coupled to each C-terminus. Enzyme-linked immunosorbent assay (ELISA) was used to detect the binding of antibodies to these peptides. Streptavidin (sigma, Cat #M5432) was diluted with PBS to a final concentration of 1.0 μg/ml, and then added as 100 μl per well to a 96-well ELISA plate. The plate was sealed with plastic film and incubated overnight at 4° C. The plate was washed 2 times with the plate washing solution (PBS+0.01% Tween20) on the next day, and added with the blocking solution (PBS+0.01% Tween20+1% BSA) and blocked at room temperature for 1-2 hours. The blocking solution was poured off, and biotinylated peptides was added to a final concentration of 1 ug/ml, as 100 ul per well to the 96-well ELISA plate, incubated at 37° C. for 1-2 hours, then washed with plate washing solution (PBS+0.01% Tween20)2-3 times. Then the antibody samples to be tested were incubated as 100 μl per well at 37° C. for 1-2 hours, and then the plate was washed 2-3 times with a plate washing solution (PBS+0.01% Tween20). HRP (horseradish peroxidase) labeled secondary antibody was added, and the plate was incubated at 37° C. for 1-2 hours, and washed 2-3 times with a plate washing solution (PBS+0.01% Tween20). 100 μl of TMB substrate was added to each well. After incubated at room temperature for 15-30 minutes, the plate was added with 100 μl of stop solution (1.0N HCl) to each well.

In another assay the target is T3, HPAAPSSWGPRPK-Biotin (human).
T3 construct: Overlapping peptide of the outer loop of human LAG-3; also called LAG-3 Extra cyclic peptide
T3 peptide: HPAAPSSWGPRPK-{Biotin′}
The assay is described as above. The protocol:
as §2

The target of assay [12] is T1, human LAG-3 on cells (HEK293-hLAG-3 …). The assay is described as follows: FACS, HEK293-hLAG-3, antibody 0.013 nM. The source holds these as a separate data set.
The target is the same in assay [13]. Nature of the assay: FACS, HEK293-hLAG-3, antibody 0.064 nM.

Turning to hIgG control (antibody), the Inhibition rate (%) in assay [1] was 19.7%; in assay [3], -15.1%; in assay [5] it was 2.6%; in assay [7] it was 17.7%; in assay [8], -4.3%. Further, the Mean fluorescence intensity in assay [2] amounted to 4; in [4], 4; in assay [6] it was 3.1.

B1: 405B8H3 mouse-human chimeric antibody (antibody, V domains shown)
VH: QVQLQQSGAELVRPGASVTLSCKASGYTFTDYEMHWVKQTPVHGLEWIGATDPETGNSAYNQKFKGKAIMTADKSSSTAYMELRSLTSEDSAVYYCISTGWNDWGQGTSLTVSS
VL: DIKMTQSPSSMYASLGERVTITCKASQDINSYLSWFQQKPGKSPKTLIYRADRLLDGVPSRFSGSGSGQDYSLTISSLEYGDMGIYYCLQYDEFPYTFGGGTKLEIK
notes: also called mAb103-405B8H3
As for B1, the Mean fluorescence intensity in [9] was 54; in assay [10], 4; in assay [11], 9.

B2: 105F1E10 (mouse antibody purified from hybridoma) (antibody, V domains shown)
VH: EVQLQQSGPELVKPGASVKMSCRASGYTFTDFKMHWMKQSHGKSLEWIGYIAPNNGGTAYNQKFRGKATLTVNESSNTAYMELRSLTSEDSAVYYCVDWDDVDYWGQGTTLTVSS
VL: DIKMTQSPSSMYASLGERVTITCKASQDINSYLSWFQQKSGKSPKTLIYRANRLVDGVPSRFSGSGSGQDYSLTISSLEYEDMGIYYCLQYVEFPLTFGAGTKLELK
notes: also called mAb009-105F1E10
Turning to B2, the binding result in the assay with PHPAAPSSWGPRK-Biotin and with HPAAPSSWGPRPK-Biotin was “binds” each time.

B3: 556F6B8 mouse-human chimeric antibody (antibody, V domains shown)
VH: RVQLKQSGPGLVQPSQSLSITCTVSGFSLIKYGVHWVRQSPGEGLEWLGVIWRGGITDYNAAFMSRLSITKDNSKSQVFFKMNSLQADDTAIYYCAKWDGPLAMDYWGQGTSVTVSS
VL: DIVMTQSHKFLSTSVGDRVSITCKASQDVGTTVAWYQQKPGQSPKLLIYWASTRHTGVPDRFTGSGSGTDFTLTISNVQSEDLADYFCQQYSSYPYTFGGGTKLEIK
notes: also called mAb123-556F6B8; 556F8B8
Turning to B3, the Mean fluorescence intensity in assay [12] was 6; in assay [13], 12.
